In assay [1] the test system is MPB (myelin basic protein). The experiment in a line: In vitro kinase activity of protein kinase N beta derivatives, MPB/MBP phosphorylation. It counts as biochemical. Details: key to Activity: +: active; −: inactive; !: no “hyper activation” was observed as one might have expected from comparable mutations in other kinases (Morgan and Debond, 1994). The following applies: for phosphorylation of MBP, 32P incorporation: immune precipitates, gamma 32P-ATP, autoradiography, FIG. 11B. The protocol:
The respective fragments were transiently epressed in HeLa cells. Their relative expression was determined by Western-blot analysis of Hela cell extracts using an anti-PKNbeta antibody.
MPB is myelin basic protein which is a standard in vitro phosphorylation substrate.
As may be taken from FIG. 9A apart from the full-length protein kinase N beta only the kinase domain in its otherwise wildtype form is active in phosphorylating MPB.
The PKNbeta-derived molecules were immune-precipitated from the cell extracts shown in FIG. 10 by using anti-tag antibodies. The immune precipitates were washed as described (Klippel et al., 1996) and divided in two halfs. One half was incubated with 5 μg MBP (UBI) as a phosphorylation substrate, 4 mM MgCl2 and gamma ^32P-ATP in a buffered solution for 10 min at room temperature. In addition, phosphatase inhibitors and inhibitors against unspecifically acting kinases were added as in Klippel et al., 1998. Incorporation of radioactive phosphate was detected by autoradiography after separating the reaction products by 16% SDS-PAGE (FIG. 11B).

Assay [2] has as its system GST-GSK3 fusion protein. The experiment in a line: Non-radioactive in vitro kinase assay, anti-phospho GSK3alpha Western blot. Format: biochemical. The following applies: immune precipitates, 200 μM rATP, FIG. 11A. The protocol:
The second half of the immune precipitates was incubated with 1 μg GST-GSK3 fusion protein (Cell Signaling Technology) as a phosphorylation substrate in the presence of 200 μM rATP. The reaction mixture was subsequently analyzed by 8-16% gradient SDS-PAGE and Western blotting using the anti-phospho GSK3alpha antibody (Cell Signaling Technology) (FIG. 11A).
The specificity of the in vitro phosphorylation reactions was controlled by analyzing kinase defective variants (e.g. containing mutations in the ATP binding site, see above) in parallel to active protein.
In a first step, the suitability of a non-radioactive screening formate was determined, whereby the various protein kinase N beta derivatives as already discussed in connection with example 10, were used for phosphorylating a suitable substrate. Such substrate may, for example, be MBP or a GSK3 peptide which is typically immobilised on a suitable carrier such as agarose- or sepharose beads or on plastic surfaces. In the present case and as depicted in FIG. 11A, the substrate is a GSK3-derived peptide fused to paramyosin. […] The phosphorylated substrate in the present case was detected by anti-phospho GSK3 alpha antibody (mentioned above).

Entries after “also recorded” stand apart in the source; their conditions may differ.

B1: ΔN comprising amino acids 288-889: protein kinase N beta derivative comprising amino acids 288-889 (protein, UniProt Q6P5Z2 288-889, looked up, fragment)
chain: CEQLLTAVPGRSPAAALASSPSEGWLRTKAKHQRGRGELASEVLAVLKVDNRVVGQTGWGQVAEQSWDQTFVIPLERARELEIGVHWRDWRQLCGVAFLRLEDFLDNACHQLSLSLVPQGLLFAQVTFCDPVIERRPRLQRQERIFSKRRGQDFLRASQMNLGMAAWGRLVMNLLPPCSSPSTISPPKGCPRTPTTLREASDPATPSNFLPKKTPLGEEMTPPPKPPRLYLPQEPTSEETPRTKRPHMEPRTRRGPSPPASPTRKPPRLQDFRCLAVLGRGHFGKVLLVQFKGTGKYYAIKALKKQEVLSRDEIESLYCEKRILEAVGCTGHPFLLSLLACFQTSSHACFVTEFVPGGDLMMQIHEDVFPEPQARFYVACVVLGLQFLHEKKIIYRDLKLDNLLLDAQGFLKIADFGLCKEGIGFGDRTSTFCGTPEFLAPEVLTQEAYTRAVDWWGLGVLLYEMLVGECPFPGDTEEEVFDCIVNMDAPYPGFLSVQGLEFIQKLLQKCPEKRLGAGEQDAEEIKVQPFFRTTNWQALLARTIQPPFVPTLCGPADLRYFEGEFTGLPPALTPPAPHSLLTARQQAAFRDFDFVSERFLEP
For B1, the Activity entry in assay [1] (transient overexpression in HeLa cells, MPB substrate, FIG. 9) is “−*”.

B2: Full length wt: full length wildtype PKNbeta molecule (889 amino acids) (protein)
chain: MEEGAPRQPGPSQWPPEDEKEVIRRAIQKELKIKEGVENLRRVATDRRHLGHVQQLLRSSNRRLEQLHGELRELHARILLPGPGPGPAEPVASGPRPWAEQLRARHLEALRRQLHVELKVKQGAENMTHTCASGTPKERKLLAAAQQMLRDSQLKVALLRMKISSLEASGSPEPGPELLAEELQHRLHVEAAVAEGAKNVVKLLSSRRTQDRKALAEAQAQLQESSQKLDLLRLALEQLLEQLPPAHPLRSRVTRELRAAVPGYPQPSGTPVKPTALTGTLQVRLLGCEQLLTAVPGRSPAAALASSPSEGWLRTKAKHQRGRGELASEVLAVLKVDNRVVGQTGWGQVAEQSWDQTFVIPLERARELEIGVHWRDWRQLCGVAFLRLEDFLDNACHQLSLSLVPQGLLFAQVTFCDPVIERRPRLQRQERIFSKRRGQDFLRRSQMNLGMAAWGRLVMNLLPPCSSPSTISPPKGCPRTPTTLREASDPATPSNFLPKKTPLGEEMTPPPKPPRLYLPQEPTSEETPRTKRPHMEPRTRRGPSPPASPTRKPPRLQDFRCLAVLGRGHFGKVLLVQFKGTGKYYAIKALKKQEVLSRDEIESLYCEKRILEAVGCTGHPFLLSLLVCFQTSSHARFVTEFVPGGDLMMQIHEDVFPEPQARFYVACVVLGLQFLHEKKIIYRDLKLDNLLLDAQGFLKIADFGLCKEGIGFGDRTSTFCGTPEFLAPEVLTQEAYTQAVDWWALGVLLYEMLVGECPFPGDTEEEVFDCIVNMDAPYPGFLSVQGLEFIQKLLQKCPEKRLGAGEQDAEEIKVQPFFRTTNWQALLARTIQPPFVPTLCGPADLRYFEGEFTGLPPALTPPAPHSLLTARQQAAFRDFDFVSERFLEP
As for B2, in assay [1], the “phosphorylation of MBP, 32P incorporation” value (“phosphorylation of MBP” for short) is recorded as “show activity”. For the same molecule, the “phosphorylating MPB (FIG. 9A)” value in assay [1] (transient overexpression in HeLa cells) is given as “active”. For the same molecule, the “phosphorylation of GSK3-derived substrate” value in assay [2] (listed as full length wildtype protein kinase N beta) is recorded as “suitable to phosphorylate the substrate; also recorded: show activity”.

B3: full length KE: full length protein kinase N beta with kinase defective KE mutation at position 588 (protein)
chain: MEEGAPRQPGPSQWPPEDEKEVIRRAIQKELKIKEGVENLRRVATDRRHLGHVQQLLRSSNRRLEQLHGELRELHARILLPGPGPGPAEPVASGPRPWAEQLRARHLEALRRQLHVELKVKQGAENMTHTCASGTPKERKLLAAAQQMLRDSQLKVALLRMKISSLEASGSPEPGPELLAEELQHRLHVEAAVAEGAKNVVKLLSSRRTQDRKALAEAQAQLQESSQKLDLLRLALEQLLEQLPPAHPLRSRVTRELRAAVPGYPQPSGTPVKPTALTGTLQVRLLGCEQLLTAVPGRSPAAALASSPSEGWLRTKAKHQRGRGELASEVLAVLKVDNRVVGQTGWGQVAEQSWDQTFVIPLERARELEIGVHWRDWRQLCGVAFLRLEDFLDNACHQLSLSLVPQGLLFAQVTFCDPVIERRPRLQRQERIFSKRRGQDFLRRSQMNLGMAAWGRLVMNLLPPCSSPSTISPPKGCPRTPTTLREASDPATPSNFLPKKTPLGEEMTPPPKPPRLYLPQEPTSEETPRTKRPHMEPRTRRGPSPPASPTRKPPRLQDFRCLAVLGRGHFGKVLLVQFKGTGKYYAIEALKKQEVLSRDEIESLYCEKRILEAVGCTGHPFLLSLLVCFQTSSHARFVTEFVPGGDLMMQIHEDVFPEPQARFYVACVVLGLQFLHEKKIIYRDLKLDNLLLDAQGFLKIADFGLCKEGIGFGDRTSTFCGTPEFLAPEVLTQEAYTQAVDWWALGVLLYEMLVGECPFPGDTEEEVFDCIVNMDAPYPGFLSVQGLEFIQKLLQKCPEKRLGAGEQDAEEIKVQPFFRTTNWQALLARTIQPPFVPTLCGPADLRYFEGEFTGLPPALTPPAPHSLLTARQQAAFRDFDFVSERFLEP
For B3, the “phosphorylation of MBP” value in assay [1] is “background activity of unspecific kinases”. Besides, the “phosphorylation of GSK3-derived substrate” value in assay [2] is given as “no”.

B4: full length TA: full length protein kinase N beta with TA mutation at amino acid 718 (protein)
chain: MEEGAPRQPGPSQWPPEDEKEVIRRAIQKELKIKEGVENLRRVATDRRHLGHVQQLLRSSNRRLEQLHGELRELHARILLPGPGPGPAEPVASGPRPWAEQLRARHLEALRRQLHVELKVKQGAENMTHTCASGTPKERKLLAAAQQMLRDSQLKVALLRMKISSLEASGSPEPGPELLAEELQHRLHVEAAVAEGAKNVVKLLSSRRTQDRKALAEAQAQLQESSQKLDLLRLALEQLLEQLPPAHPLRSRVTRELRAAVPGYPQPSGTPVKPTALTGTLQVRLLGCEQLLTAVPGRSPAAALASSPSEGWLRTKAKHQRGRGELASEVLAVLKVDNRVVGQTGWGQVAEQSWDQTFVIPLERARELEIGVHWRDWRQLCGVAFLRLEDFLDNACHQLSLSLVPQGLLFAQVTFCDPVIERRPRLQRQERIFSKRRGQDFLRRSQMNLGMAAWGRLVMNLLPPCSSPSTISPPKGCPRTPTTLREASDPATPSNFLPKKTPLGEEMTPPPKPPRLYLPQEPTSEETPRTKRPHMEPRTRRGPSPPASPTRKPPRLQDFRCLAVLGRGHFGKVLLVQFKGTGKYYAIKALKKQEVLSRDEIESLYCEKRILEAVGCTGHPFLLSLLVCFQTSSHARFVTEFVPGGDLMMQIHEDVFPEPQARFYVACVVLGLQFLHEKKIIYRDLKLDNLLLDAQGFLKIADFGLCKEGIGFGDRTSAFCGTPEFLAPEVLTQEAYTQAVDWWALGVLLYEMLVGECPFPGDTEEEVFDCIVNMDAPYPGFLSVQGLEFIQKLLQKCPEKRLGAGEQDAEEIKVQPFFRTTNWQALLARTIQPPFVPTLCGPADLRYFEGEFTGLPPALTPPAPHSLLTARQQAAFRDFDFVSERFLEP
Take B4: the “phosphorylation of MBP” value in assay [1] is “background activity of unspecific kinases”. For the same molecule, in assay [2], the “phosphorylation of GSK3-derived substrate” value is given as “no”.

The values above are taken from patent publication US7713943B2, “Further use of protein kinase N beta” (Silence Therapeutics Aktiengesellschaft (AG), priority 2002, dated 2010).
